Reference: patent US20150344570A1 (published 2015)
Where a chain is given by its changes, count along the chain named. Names may count otherwise.

B1: H240-Kn033/H240-Hl033/L73-k0 (antibody, human IgG1, kappa)
heavy 1: not shown
heavy 2: not shown
light: DIQMTQSPSSLSASVGDRVTITCRASQDIHKYIAWYQQKPGQAPRLLIQYTSTLQPGVPSRFSGSGSGTDYTFTISSLQPEDIATYYCLQYEQLRTFGGGTKVEIKRTVAAPSVFIFPPSDEQLKSGTASVVCLLNNFYPREAKVQWKVDNALQSGNSQESVTEQDSKDSTYSLSSTLTLSKADYEKHKVYACEVTHQGLSSPVTKSFNRGEC
notes: Anti-epiregulin antibody; native IgG1 with only knobs-into-holes alterations
B2: H240-Kn032/H240-Hl032/L73-k0 (antibody, human IgG1, kappa)
heavy 1: QDQLVQSGAEVKKPGASVKVSCKASGFNIKDTYIQWVRQAPGQGLEWMGRIDPLRKQTKYREKFEGRVTITADTSTNTAYMELSSLRSEDTAVYYCVRSGREFDYWGQGTLVTVSSASTKGPSVFPLAPSSKSTSGGTAALGCLVKDYFPEPVTVSWNSGALTSGVHTFPAVLQSSGLYSLSSVVTVPSSSLGTQTYICNVNHKPSNTKVDKKVEPKSCDKTHTCPPCPAPELLGGPDVFLFPPKPKDTLMISRTPEVTCVVVDVSHEDPEVKFNWYVDGVEVHNAKTKPREEQYNSTYRVVSVLTVLHQDWLNGKEYKCKVSNKALPLPEEKTISKAKGQPREPQVCTLPPSRDELTKNQVSLWCLVKGFYPSDIAVEWESNGQPENNYKTTPPVLDSDGSFFLYSKLTVDKSRWQQGNVFSCSVMHEALHNHYTQKSLSLSP
heavy 2: B2 heavy 1 with C348Y, D355C, W365S, L367A, Y406V
light: B1 light
notes: S239D/A330L/I332E in both H chains
B3: H240-Kn037/H240-Hl036/L73-k0 (antibody, human IgG1, kappa)
heavy 1: B2 heavy 1 with G235A, L329A
heavy 2: B2 heavy 1 with G235A, L329A, C348Y, D355C, W365S, L367A, Y406V
light: B1 light
notes: it says that both H chains have G236A/S239D/I332E
B4: H240-Kn204/H240-Hl211/L73-k0 (antibody, human IgG1, kappa)
heavy 1: B2 heavy 1 with L233Y, D238S, K289Y, Y295W, L329A, E331I
heavy 2: B2 heavy 1 with L329M, E331I, K333V, C348Y, D355C, W365S, L367A, Y406V
light: B1 light
notes: L234Y/K290Y/Y296W in one H chain, S239D/A330M/K334V in the other
B5: H240-Kn205/H240-Hl212/L73-k0 (antibody, human IgG1, kappa)
heavy 1: B2 heavy 1 with L233Y, D238S, Y295W, S297C, L329A, E331I
heavy 2: B2 heavy 1 with L329A, E331I, K333V, C348Y, D355C, W365S, L367A, Y406V
light: B1 light
notes: L234Y/Y296W/S298C in one H chain, S239D/K334V in the other
B6: H240-Kn225/H240-Hl076/L73-k0 (antibody, human IgG1, kappa)
heavy 1: B2 heavy 1 with L233Y, L234Q, G235W, D238I, H267D, D269E, S297A, L329A, E331I
heavy 2: QDQLVQSGAEVKKPGASVKVSCKASGFNIKDTYIQWVRQAPGQGLEWMGRIDPLRKQTKYREKFEGRVTITADTSTNTAYMELSSLRSEDTAVYYCVRSGREFDYWGQGTLVTVSSASTKGPSVFPLAPSSKSTSGGTAALGCLVKDYFPEPVTVSWNSGALTSGVHTFPAVLQSSGLYSLSSVVTVPSSSLGTQTYICNVNHKPSNTKVDKKVEPKSCDKTHTCPPCPAPELLGGPSVFLFPPKPKDTLMISRTPEVTCVVVDVSHEEPEVKFNWYVDGVEVHNAKTKPREEQYNSTYRVVSVLTVLHQDWLNGKEYKCKVSNDALPMPIEETISKAKGQPREPQVYTLPPSRCELTKNQVSLSCAVKGFYPSDIAVEWESNGQPENNYKTTPPVLDSDGSFFLVSKLTVDKSRWQQGNVFSCSVMHEALHNHYTQKSLSLSP
light: B1 light
B7: H240-Kn229/H240-Hl068/L73-k0 (antibody, human IgG1, kappa)
heavy 1: B2 heavy 1 with L233Y, L234Y, G235W, D238I, H267D, S297A, A326D, L329A, E331I
heavy 2: B6 heavy 2 with M329K
light: B1 light
B8: H240-afucosyl_G1d/L73-k0 (antibody, human IgG1, kappa)
heavy: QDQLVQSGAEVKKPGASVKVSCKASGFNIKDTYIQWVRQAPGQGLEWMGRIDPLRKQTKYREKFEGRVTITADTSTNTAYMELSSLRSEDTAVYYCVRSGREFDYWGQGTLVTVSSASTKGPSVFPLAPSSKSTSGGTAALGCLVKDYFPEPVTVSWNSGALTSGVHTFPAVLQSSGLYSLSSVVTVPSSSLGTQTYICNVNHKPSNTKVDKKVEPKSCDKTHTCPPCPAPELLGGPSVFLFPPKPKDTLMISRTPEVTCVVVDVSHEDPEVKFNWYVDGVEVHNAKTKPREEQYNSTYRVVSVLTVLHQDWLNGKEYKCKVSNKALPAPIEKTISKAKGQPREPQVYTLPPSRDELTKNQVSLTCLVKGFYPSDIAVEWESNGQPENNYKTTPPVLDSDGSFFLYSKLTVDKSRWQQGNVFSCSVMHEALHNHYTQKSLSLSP
light: B1 light
modifications: fucose removed from the sugar chain (afucosylated)
notes: Anti-epiregulin IgG1, afucosylated; also called afucosylated antibody
B9: H240-Kn193/H240-Hl204/L73-k0 (antibody, human IgG1, kappa)
heavy 1: B2 heavy 1 with L233Y, L234N, G235W, D238M, H267D, E293R, S297A, A326D, L329A, E331I
heavy 2: B6 heavy 2 with G235T, M329K, I331E
light: B1 light
notes: H240-Kn193 is H240-Kn120 with Y235N and E294R; also called H240-Kn193/H240-HI204/L73-k0

target: T1, FcgRIIIaV (human, UniProt P08637 17-208); experiment: SPR (Biacore); KD of H240-Kn033/H240-Hl033/L73-k0 divided by KD of the variant
T1 construct: extracellular domain; also called FcγRIIIa V; not shown: His tag at the C terminus
T1 sequence (P08637 17-208 F176V limits assumed): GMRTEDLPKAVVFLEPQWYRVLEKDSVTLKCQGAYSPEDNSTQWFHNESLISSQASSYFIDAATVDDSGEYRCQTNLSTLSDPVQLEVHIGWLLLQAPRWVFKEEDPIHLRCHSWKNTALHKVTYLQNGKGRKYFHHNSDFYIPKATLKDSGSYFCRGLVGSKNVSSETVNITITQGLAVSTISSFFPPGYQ
Protocol: (§1) Binding of the produced variants to FcgRIa, FcgRIIaR, FcgRIIaH, FcgRIIb, FcgRIIIaF, and FcgRIIIaV was measured according to the method of Reference Example 8.
(§2) Analysis of interaction between objective antibody and the FcγR was carried out using Biacore T100 (GE Healthcare), Biacore T200, Biacore A100, and Biacore 4000. HBS-EP+ (GE Healthcare) was used as the running buffer, and the measurement temperature was set to 25° C. Chips produced by immobilizing the antigen peptide by the amine coupling method to a Series S sensor Chip CM5 (GE Healthcare), chips produced by allowing preliminarily biotinylated antigen peptides to interact with and immobilize onto a Series S Sensor Chip SA (certified) (GE Healthcare), chips produced by immobilizing Protein L (ACTIGEN, BioVision) to Series S Sencor Chip CM5 (GE Healthcare), or chips produced by immobilizing Protein A/G (Thermo Scientific) to Series S Sencor Chip CM5 (GE Healthcare) were used. Antibodies of interest were captured onto these chips, and allowed to interact to each FcγR diluted with running buffer. To regenerate and repeatedly use the chip, the antibodies captured onto the chip were washed off by reacting 10 mM glycine-HCl, pH 1.5.

Compared with B1, B2 is higher in “fold 3aV” value: 1 fold for the first, 15.5 fold for the second.

Going from B3 to B4, the “fold 3aV” value falls from 7.1 fold to 6.5 fold.

First: B5
Second: B6
The “fold 3aV” value of the first is lower: 11.4 fold for the first, 253 fold for the second.

Going from B7 to B8, the “fold 3aV” value falls from 62.3 fold to 7 fold.

target: T2, FcgRIIaH (human, UniProt P12318 34-217); experiment: as above
T2 construct: extracellular domain; also called FcγRIIa H; FcγRIIa type H; not shown: His tag at the C terminus
T2 sequence (looked up): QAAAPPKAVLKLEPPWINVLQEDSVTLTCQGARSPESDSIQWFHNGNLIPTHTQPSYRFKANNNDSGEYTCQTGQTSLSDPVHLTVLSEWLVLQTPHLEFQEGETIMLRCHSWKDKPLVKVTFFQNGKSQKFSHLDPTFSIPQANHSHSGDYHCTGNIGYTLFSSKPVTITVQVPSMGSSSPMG
Protocol: as §1, §2

Going from B1 to B2, the “fold 2aH” value falls from 1 fold to 0.8 fold.

First: B3
Second: B4
The “fold 2aH” value of the first is higher: 11.3 fold for the first, 0.7 fold for the second.

Going from B5 to B6, the “fold 2aH” value rises from 1.4 fold to 3.1 fold.

First: B7
Second: B8
The “fold 2aH” value of the first is higher: 13.3 fold for the first, 0.7 fold for the second.

target: T3, FcgRIIb (human, UniProt P31994 43-217); experiment: as above
T3 construct: extracellular domain; also called FcγRIIb; CD32B; not shown: His tag at the C terminus
T3 sequence (looked up): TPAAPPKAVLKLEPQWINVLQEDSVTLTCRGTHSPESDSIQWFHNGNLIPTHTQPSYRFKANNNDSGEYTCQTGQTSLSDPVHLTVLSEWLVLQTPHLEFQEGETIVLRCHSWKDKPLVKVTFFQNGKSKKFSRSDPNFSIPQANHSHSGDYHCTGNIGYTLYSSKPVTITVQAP
Protocol: as §1, §2

First: B1
Second: B2
The “fold 2b” value of the first is lower: 1 fold for the first, 5.3 fold for the second.

Going from B3 to B4, the “fold 2b” value falls from 8.7 fold to 2.5 fold.

Going from B5 to B6, the “fold 2b” value falls from 2.1 fold to 0.6 fold.

Compared with B7, B8 is lower in “fold 2b” value: 16.5 fold for the first, 1.3 fold for the second.

target: T4, FcgRIIIaF (human, UniProt P08637 17-208); experiment: as above
T4 construct: extracellular domain; also called FcγRIIIa F; not shown: His tag at the C terminus
T4 sequence (P08637 17-208): as the sequence (P08637 17-208 F176V limits assumed) above, with V160F counted along it
Protocol: as §1, §2

First: B1
Second: B2
The “fold 3aF” value of the first is lower: 1 fold for the first, 31.9 fold for the second.

Compared with B3, B4 is higher in “fold 3aF” value: 13.8 fold for the first, 20.7 fold for the second.

First: B5
Second: B6
The “fold 3aF” value of the first is lower: 24.2 fold for the first, 264 fold for the second.

First: B7
Second: B8
The “fold 3aF” value of the first is higher: 138 fold for the first, 3.7 fold for the second.

target: T5, FcgRIIaR (human, UniProt P12318 34-217); experiment: as above
T5 construct: extracellular domain; also called FcγRIIa R; FcγRIIa type R; not shown: His tag at the C terminus
T5 sequence (looked up): T2 sequence (looked up) with H134R
Protocol: as §1, §2

Going from B1 to B2, the “fold 2aR” value rises from 1 fold to 2.2 fold.

Compared with B3, B4 is lower in “fold 2aR” value: 25.5 fold for the first, 1.2 fold for the second.

Going from B5 to B6, the “fold 2aR” value rises from 1.2 fold to 1.5 fold.

Going from B7 to B8, the “fold 2aR” value falls from 46.3 fold to 1.5 fold.

target: T6, FcgRIIb extracellular domain, C-terminal His tag (human, UniProt P31994 43-217); experiment: SPR (Biacore); KD of H240-Kn120/H240-Hl068/L73-k0 divided by KD of the variant
T6 construct: extracellular domain; Soluble analyte in Biacore; also called FcγRIIb; not shown: His tag at the C terminus
T6 sequence (looked up): T3 sequence (looked up)
Protocol: (§3) H240-Kn179/H240-H1089/L73-k0, H240-Kn180/H240-Hl089/L73-k0, H240-Kn192/H240-Hl204/L73-k0, and H240-Kn193/H240-Hl204/L73-k0 were prepared by combining each of H240-Kn192 and H240-Kn193 as an H chain, L73-k0 as the L chain, and H240-Hl089 and H240-Hl204 as the other H chain according to the method described in Reference Example 1. The variants described above were assessed for their binding to FcγR according to the method described in Reference Example 8.
as §2

For B9, the “relative KD” value was 0.5.

target: T7, FcgRIIIa V type extracellular domain, C-terminal His tag (human, UniProt P08637 17-208); experiment: as above
T7 construct: extracellular domain; Soluble analyte in Biacore; also called FcγRIIIa V; not shown: His tag at the C terminus
T7 sequence (P08637 17-208 F176V): as the sequence (P08637 17-208 F176V limits assumed) above
Protocol: as §3, §2

With B9 the “relative KD” value was 0.2.

target: T8, FcgRIIa R type extracellular domain, C-terminal His tag (human, UniProt P12318 34-217); experiment: as above
T8 construct: extracellular domain; Soluble analyte in Biacore; also called FcγRIIa R; FcγRIIa(R); not shown: His tag at the C terminus
T8 sequence (looked up): T2 sequence (looked up) with H134R
Protocol: as §3, §2

B9 was tested, and the “relative KD” value was 1.3.

target: T9, FcgRIIa H type extracellular domain, C-terminal His tag (human, UniProt P12318 34-217); experiment: as above
T9 construct: extracellular domain; Soluble analyte in Biacore; also called FcγRIIa H; FcγRIIa(H); not shown: His tag at the C terminus
T9 sequence (looked up): T2 sequence (looked up)
Protocol: as §3, §2

B9 was tested, and the “relative KD” value was 1.2.

target: T10, FcgRIIIa F type extracellular domain, C-terminal His tag (human, UniProt P08637 17-208); experiment: as above
T10 construct: extracellular domain; Soluble analyte in Biacore; also called FcγRIIIa F; not shown: His tag at the C terminus
T10 sequence (P08637 17-208): as the sequence (P08637 17-208 F176V limits assumed) above, with V160F counted along it
Protocol: as §3, §2

With B9 the “relative KD” value was 0.2.
